Measured values published in patent US20260035478A1 (TENEOBIO, published 2026).

Tests used:
[1] = target: T1, human mesothelin (MSLN) on cells (human, UniProt Q13421 296-598); assay: flow cytometry, supernatant diluted 1:5, CHO cells expressing human MSLN
T1 construct: whole, on cells; One molecule is used for human MSLN on transfected CHO cells and on HeLa cells; the cell line is named under assay; also called huMSLN
Experimental: Pelleted CHO cells were resuspended in flow buffer (1× phosphate buffered saline (PBS), 1% bovine serum albumin (BSA), and 0.1% NaN₃) at 1.25×10⁶ cells/mL. Antibody containing supernatants were diluted 1:5 in flow buffer, and 40 μL cells plus 10 μL diluted antibody supernatant were incubated for 30 minutes at 4° C. Cells were washed with flow buffer and resuspended in 50 μL phycoerythrin (PE)-conjugated secondary antibody (Southern Biotech #2042-09) diluted in flow buffer to 1.25 μg/mL and incubated for 20 minutes at 4° C. After two wash steps, cells were resuspended in flow buffer and analyzed using a Guava easyCyte 8HT system. Table E1 summarizes the target binding activity of the anti-MSLN single domain antibodies as fold over background mean fluorescence intensity (MFI) signal.

[2] = target: T1, human mesothelin (MSLN) on cells; assay: flow cytometry dose curve, CHO cells expressing human MSLN
Experimental: (§1) Cell-binding dose curves for example anti-MSLN single domain antibodies described herein were generated using CHO cells expressing human MSLN (FIG. 1A), Hela cells (FIG. 1B), and CHO-OFFtgt cells (FIG. 1C). The single domain antibodies were tested at a starting concentration of 150 nM, followed by 3-fold serial dilutions for an 8-point dose curve. All washes and dilutions of cells, antibodies, and reagents were performed using flow buffer (1× phosphate buffered saline (PBS), 1% bovine serum albumin (BSA), and 0.1% NaN₃). Cells were pelleted and resuspended at 1×10⁶ cells/mL in flow buffer. Then, 50 μL cells were combined with 50 μL of test antibody and incubated 30 minutes at 4° C., followed by two wash steps with flow buffer. Cells were then resuspended in 50 μL PE-conjugated secondary diluted to 1.25 μg/mL (Southern Biotech #2042-09) and incubated for 20 minutes at 4° C. After two wash steps, cells were resuspended in flow buffer and analyzed using a BD Celesta system. PE mean fluorescence intensity was plotted as a fold over background (cells incubated with secondary detection antibody only).
To determine cell binding EC50 values for example anti-MSLN single domain antibodies of the present disclosure, cell binding dose curves were generated using Hela cells and CHO cells expressing human MSLN. The single domain antibodies were tested at a starting dose of 150 nM, followed by 3-fold serial dilutions for an 8-point dose curve as described in Example 2. The transformed data were plotted as an xy-graph using the non-linear regression curve fit (available in GraphPad Prism 8.4.3) to obtain the EC50 values (nM), which are summarized in Table E2.

[3] = target: T2, recombinant human MSLN (R&D Systems, #3265-MS) (human, UniProt Q13421 296-580, limits assumed); assay: BLI (Octet HTX), antibody on AHC sensors, antigen in solution, 1:1 model
T2 construct: Bought reagent; It was loaded on Ni-NTA sensors for the binning, so it apparently carries a His tag; also called antigen
T2 sequence (Q13421 other isoform, or with tags, fused parts or gaps limits assumed): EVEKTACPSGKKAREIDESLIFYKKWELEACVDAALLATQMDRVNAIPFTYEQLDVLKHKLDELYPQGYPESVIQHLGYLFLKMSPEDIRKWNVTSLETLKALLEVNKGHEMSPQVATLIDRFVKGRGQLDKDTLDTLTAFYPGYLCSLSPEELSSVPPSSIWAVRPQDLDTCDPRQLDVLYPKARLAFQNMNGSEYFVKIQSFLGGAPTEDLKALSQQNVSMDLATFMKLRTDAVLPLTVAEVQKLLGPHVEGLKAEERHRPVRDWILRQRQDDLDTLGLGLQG
Experimental: Table E3 summarizes affinity and epitope bin information for example anti-MSLN single domain antibodies of the present disclosure. The affinity of each single domain antibody to recombinant human MSLN (R&D Systems, #3265-MS) was measured by Bio-layer interferometry (BLI) using an Octet HTX. AHC (Anti-hIgG Fc Capture) sensors were used to immobilize test antibody at 5 μg/mL. After baseline readings, sensors were dipped into antigen solutions (starting at 500 nM followed by a 7-point, 2-fold dilution series). Association and dissociation were measured for 180 and 240 seconds respectively. Data were analyzed with Octet Data Analysis v11.0 HT (ForteBio) using a standard 1:1 binding model. Epitope bins for the single domain antibodies were determined by an in-tandem competition BLI binding experiment using an Octet HTX. The antigen (5 μg/mL) was loaded on the sensor Ni-NTA sensor followed by a baseline in kinetic buffer. The antigen-coated sensor was then dipped into a saturating concentration Antibody 1. A second baseline was now set for 300 seconds. Then the antigen-antibody 1 complex was dipped into Antibody 2 solution for 180 seconds and then allowed to dissociate.

[4] = target: T1, human mesothelin (MSLN) on cells; assay: flow cytometry dose curve, HeLa cells
Experimental: as §1
To determine cell binding EC50 values for example anti-MSLN single domain antibodies of the present disclosure, cell binding dose curves were generated using Hela cells and CHO cells expressing human MSLN. […]

T1 sequence (Q13421 other isoform, or with tags, fused parts or gaps limits assumed): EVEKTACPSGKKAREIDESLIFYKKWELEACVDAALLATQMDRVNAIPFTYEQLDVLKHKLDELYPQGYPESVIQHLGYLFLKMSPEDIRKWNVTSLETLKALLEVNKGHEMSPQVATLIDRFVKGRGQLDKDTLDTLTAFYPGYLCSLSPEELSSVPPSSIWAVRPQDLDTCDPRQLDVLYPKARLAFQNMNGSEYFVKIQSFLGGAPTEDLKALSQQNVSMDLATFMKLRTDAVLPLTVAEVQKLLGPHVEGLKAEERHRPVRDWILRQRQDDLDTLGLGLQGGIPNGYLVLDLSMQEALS

B1: anti-MSLN single domain antibody clone 394955 (VHH)
VHH: EVQLLESGGGLVQPGGSLRLSCAASGFTFSSYAMSWVRQAPGKGLEWVSSISSSGDSTYYADSVKGRFTISRDNSKNTLYLQMNSLRAEDTAVYYCAKPPSYYDFLSDPDYWGQGTLVTVSS
notes: Human VH single domain; tested as antibody-containing supernatant
fold over background mean fluorescence intensity (MFI) [1]: 294 fold over background

B2: anti-MSLN single domain antibody clone 394908 (VHH)
VHH: EVQLLESGGGLIQPGGSLRLSCAASGFSFSSYAMSWVRQAPGKGLEWVSNISGSGDSTYYADSVKGRFTISRDNSKNTLYLQMNSLRAEDTAVYYCAKPPSYYDFLSDPDYWGQGTLVTVSS
notes: Human VH single domain
EC50 [2]: 71.1 nM
fold over background mean fluorescence intensity (MFI) [1]: 508 fold over background
Kd [3]: 64.6 nM

B3: anti-MSLN single domain antibody clone 394921 (VHH)
VHH: EVQLLESGGGLVQPGGSLRLSCAASGFTFSSYAMSWVRQAPGKGLEWVSNISGSGDSTYYADSVKGRFTISRDNSKNTLYLQMNSLRAEDTAVYYCAKPPSYYDFLSDPDYWGQGTLVTVSS
notes: as for B1
fold over background mean fluorescence intensity (MFI) [1]: 381 fold over background

B4: anti-MSLN single domain antibody clone 394971 (VHH)
VHH: EVQLLESGGGLIQPGGSLRLSCAASGFSFSSYAMSWVRQAPGKGLEWVSYISGSGDSTYYADSVKGRFTISRDNSKNTLYLQMNSLRAEDTAVYYCAKPPSYYDFLSDPDYWGQGTLVTVSS
notes: as for B1
fold over background mean fluorescence intensity (MFI) [1]: 373 fold over background

B5: anti-MSLN single domain antibody clone 394940 (VHH)
VHH: EVQLLESGGGLVQPGGSLRLSCAASGFSFSSYAMSWVRQAPGKGLEWVSSISSSGDSTYYADSVKGRFTISRDNSKNTLYLQMNSLRAEDTAVYYCARPPSYYDFLSDPDYWGQGTLVTVSS
notes: Human VH single domain ('heavy chain antibody variable domain')
EC50 [4]: 2.6 nM
EC50 [2]: 6.5 nM
fold over background mean fluorescence intensity (MFI) [1]: 662 fold over background
Kd [3]: 21 nM

B6: anti-MSLN single domain antibody clone 394925 (VHH)
VHH: EVQLLESGGGLIQPGGSLRLSCAASGFSFSSYAMSWVRQAPGKGLEWVSAISSSGDSTYYADSVKGRFTISRDNSKNTLYLQMNSLRAEDTAVYYCAKPPSYYDFLSDPDYWGQGTLVTVSS
notes: as for B1
fold over background mean fluorescence intensity (MFI) [1]: 277 fold over background

B7: anti-MSLN single domain antibody clone 394901 (VHH)
VHH: EVQLLESGGGLIQPGGSLRLSCAASGFSFSSYAMSWVRQAPGKGLEWVSSISSSGDSTYYADSVKGRFTISRDNSKNTLYLQMNSLRAEDTAVYYCAKPPSYYDFLSDPDYWGQGTLVTVSS
notes: as for B1
fold over background mean fluorescence intensity (MFI) [1]: 400 fold over background

B8: anti-MSLN single domain antibody clone 394930 (VHH)
VHH: EVQLLESGGGLIQPGGSLRLSCAASGFSFSSYAMSWVRQAPGKGLEWVSSISSSGDSTYYADSVKGRFTISRDNSKNTLYLQMNSLRAEDTAVYYCARPPSYYDFLSDPDYWGQGTLVTVSS
notes: as for B1
fold over background mean fluorescence intensity (MFI) [1]: 540 fold over background

B9: anti-MSLN single domain antibody clone 394966 (VHH)
VHH: EVQLLESGGGLGQPGGSLRLSCAASGFTFSSYPMSWVRQAPGKGLEWVSAISGSGDSTYYADSVKGRFTISRDNSKNTLYLQMNSLRAEDTAVYYCAKPPSYYDFLSDPDYWGQGTLVTVSS
notes: as for B1
fold over background mean fluorescence intensity (MFI) [1]: 356 fold over background

B10: anti-MSLN single domain antibody clone 394947 (VHH)
VHH: EVQLLESGGGLIQPGGSLRLSCAASGFSFSSYAMSWVRQAPGKGLEWVSSISSSGDSTYYADSVKGRFTISRDNSKNTLYLQMKSLRAEDTAVYYCAKPPSYYDFLSDPDYWGQGTLVTVSS
notes: as for B1
fold over background mean fluorescence intensity (MFI) [1]: 285 fold over background

B11: anti-MSLN single domain antibody clone 394982 (VHH)
VHH: EVQLLESGGGLVQPGGSLRLSCAASGFTFTSYAMSWVRQAPGKGLEWVSSISSSGDSTYYADSVKGRFTISRDNSKNTLYLQMNSLRAEDTAVYYCAKPPSYYDFLSDPDYWGQGTLVTVSS
notes: as for B1
fold over background mean fluorescence intensity (MFI) [1]: 405 fold over background

B12: anti-MSLN single domain antibody clone 394907 (VHH)
VHH: EVQLLESGGGLIQPGGSLRLSCAASGFTFSSYAMSWVRQAPGKGLEWVSSISSSGDSTYYADSVKGRFTISRDNSKNTLYLQMNSLRAEDTAVYYCAKPPSYYDFLSDPDYWGQGTLVTVSS
notes: as for B1
fold over background mean fluorescence intensity (MFI) [1]: 429 fold over background

B13: anti-MSLN single domain antibody clone 394979 (VHH)
VHH: EVQLLESGGGVVQPGRSLRLSCAASGFTFSSYDMHWVRQAPGKGLEWVAVISYDGSKKYSADSVKGRFTISRDNSKNTLYLQMNSLRAEDTAVYYCAKPPSYYDFLSDPDYWGQGTLVTVSS
notes: as for B1
fold over background mean fluorescence intensity (MFI) [1]: 160 fold over background

B14: anti-MSLN single domain antibody clone 394910 (VHH)
VHH: EVQLLESGGGLVQPGGSLRLSCAASGFSFSSYAMSWVRQAPGKGLEWVSSISSSGDSTYYADSVKGRFTISRDNSKNTLYLQMNSLRAEDTAVYYCAKPPSYYDFLSDPDYWGQGTLVTVSS
notes: as for B1
fold over background mean fluorescence intensity (MFI) [1]: 313 fold over background

B15: anti-MSLN single domain antibody clone 394912 (VHH)
VHH: EVQLLESGGGLIQPGGSLRLSCAASGFSFSSYAMSWVRQAPGKGLEWVSSISSSGDGTYYADSVKGRFTISRDNSKNTLYLQMNSLRAEDTAVYYCAKPPSYYDFLSDPDYWGQGTLVTVSS
notes: as for B1
fold over background mean fluorescence intensity (MFI) [1]: 404 fold over background

B16: anti-MSLN single domain antibody clone 392774 (VHH)
VHH: EVQLLESGGGLVQPGGSLRLSCAASGFTFSSYAMTWVRQAPGKGLEWVSAITGSGDSTYYADSVKGRFTISRDNSKNTLFLQMSSLRGEDTAVYYCAKPPSYYDFLSDPDYWGQGTLVTVSS
notes: Human VH single domain
EC50 [4]: 15.6 nM
EC50 [2]: 7.2 nM
fold over background mean fluorescence intensity (MFI) [1]: 246 fold over background
Kd [3]: 185 nM

B17: anti-MSLN single domain antibody clone 394991 (VHH)
VHH: EVQLLESGGGLVQPGGSLRLSCAASGFTFSSYAMNWVRQAPGKGLEWVSSISSSGGSTYYADSVKGRFTISRDNSKNTLYLQMNSLRAEDTAVYYCARPPSYYDFLSDPDYWGQGTLVTVSS
notes: as for B1
fold over background mean fluorescence intensity (MFI) [1]: 281 fold over background

B18: anti-MSLN single domain antibody clone 394972 (VHH)
VHH: EVQLLESGGGLVQPGGSLRLSCAASGFTFSSYAMSWVRQAPGKGLEWVSAISSSGDSTYYADSVKGRFTISRDNSKNTLYLQMNSLRAEDTAVYYCAKPPSYYDFLSDPDYWGQGTLVTVSS
notes: as for B1
fold over background mean fluorescence intensity (MFI) [1]: 477 fold over background

B19: anti-MSLN single domain antibody clone 394985 (VHH)
VHH: EVQLLESGGGLVQPGGSLRLSCAASGFTFSSYAMSWVRQAPGKGLEWVSAITGSGDSTYYADSVKGRFTISRDNSKNTLFLQMSSLRGEDTAVYYCAKPPSYYDFLSDPDYWGQGTLVTVSS
notes: as for B1
fold over background mean fluorescence intensity (MFI) [1]: 378 fold over background

B20: anti-MSLN single domain antibody clone 394905 (VHH)
VHH: EVQLLESGGGLGQPGGSLRLSCAASGFTFSSYPMSWVRQAPGKGLEWVSSISSSGDSTYYADSVKGRFTISRDNSKNTLYLQMNSLRAEDTAVYYCAKPPSYYDFLSDPDYWGQGTLVTVSS
notes: as for B1
fold over background mean fluorescence intensity (MFI) [1]: 227 fold over background
